The values below come from the DeepSol protein solubility set.

A short description of this data set: soluble on expression in E. coli; label from the status in PepcDB or PDB records.
Turning to “NNESSLIEQAPIPQDGLTVAPHRAQREAVHIEKIMLKGVQRKRADKYWEYTFKVNWSDLSVTTVTKTHQELQEFLLKLPKELSSETFDKTILRALNQGSLKREERRHPDLEPILRQLFSSSSQAFLQSQKVHSFFQSISSDSLHSINNLQSSLKTSKILEHLKEDSSEASSQEEDVLQHAIIHKKHTGKSPIVNNIGTSCSPLDGLTMQYSEQNGIVDWRKQSCTTIQHPEHCVTSADQHSAEKRSLSSINKKKGKPQTEKEKIKKTDNRLNSRINGIRLSTPQHAHGGTVKDVNLDIGSGHDTCGETSSESYSSPSSPRHDGRESFESEEEKDRDTDSNSEDSGNPSTTRFTGYGSVNQTVTVKPPVQIASLGNENGNLLEDPLNSPKYQHISFMPTLHCVMHNGAQKSEVVVPAPKPADGKTIGMLVPSPVAISAIRESANSTPVGILGPTACTGESEKHLELLASPLPIPSTFLPHSSTPALHLTVQRLKLPPPQGSSESCTVNIPQQPPGSLSIASPNTAFIPIHNPGSFPGSPVATTDPITKSASQVVGLNQMVPQIEGNTGTVPQPTNVKVVLPAAGLSAAQPPASYPLPGSPLAAGVLPSQNSSVLSTAATSPQPASAGISQAQATVPPAVPTHTPGPAPSPSPALTHSTAQSDSTSYISAVGNTNANGTVVPPQQMGSGPCGSCGRRCSCGTNGNLQLNSYYYPNPMPGPMYRVPSFFTLPSICNGSYLNQAHQSNGNQLPFFLPQTPYANGLVHDPVMGSQANYGMQQMAGFGRFYPVYPAPNVVANTSGSGPKKNGNVSCYNCGVSGHYAQDCKQSSMEANQQGTYRLRYAPPLPPSNDTLDSAD”, the “soluble on expression in E. coli” value is on record as “soluble”.
For “MNLGDLTNFVEKPLAAVSNIVNTPNSAGRYRPFYLRNLLDAVQGRNLNDAVKGKVVLITGGSSGIGAAAAKKIAEAGGTVVLVARTLENLENVANDIRAIRGNGGTAHVYPCDLSDMDAIAVMADQVLGDLGGVDILINNAGRSIRRSLELSYDRIHDYQRTMQLNYLGAVQLILKFIPGMRERHFGHIVNVSSVGVQTRAPRFGAYIASKAALDSLCDALQAETVHDNVRFTTVHMALVRTPMISPTTIYDKFPTLTPDQAAGVITDAIVHRPRRASSPFGQFAAVADAVNPAVMDRVRNRAFNMFGDSSAAKGSESQTDTSELDKRSETFVRATRGIHW”, the “soluble on expression in E. coli” value is listed as “soluble”.
With “GSAPRVQEELCLVCGDRASGYHYNALTCEGCKGFFRRSVTKSAVYCCKFGRACEMDMYMRRKCQECRLKKCLAVGMRPECVVPENQCAMKRREKKAQKEKDKMTTSPSSQHGSPGIHRD”, the “soluble on expression in E. coli” value is given as “soluble”.
Consider “MFKKLLHSLFAGLTFMAAVAAVPAHAQEADAQTTVKTAVDDVLATIKGDSDLRSGNMQKVFQLVDQKIVPRADFKRTTQIAMGRFWSQATPEQQQQIQDGFKTLLVRTYAGALANVRNQTVSYKPFRAAADDTDVVVRSTVNNNGEPVALDYRMEKSANGWKVYDINISGLWLSETYKNQFAEVISKRGGVSGLVQFLDERNAQLAKGPAKLEHHHHHH”, for which the “soluble on expression in E. coli” value is on record as “soluble”.
The entry for “MSLQIHALFPTAVATAQLRLDPLEMAAQLQTLLMLRGADEGNPNSGCAWTGDLNGVWQLHRHPDFSGMTDRVVEQAWAYLSAVGFDQAKLALHVQRCWPVLSDWDQMVGRHHHPNAHLSAVLYLSGSGSGEDGVLRIHAPSQPNELVPGSAAGHGGPIAAGHPLNQPHWDLAPQPGLLVLFPSRLDHSVLANGDPELLRCSISFDFVLTAPVDGDPPEYLAPHPSLWTPQPLEVNEGHHHHHH” is “soluble”.
The entry for “MLKKGNEMKAVIVYASVHHGNTKKIEEAMASVISADVIDVTRKIKPDLSGYDVIGFVSGVYFHTFHEGIKKCIEENMSSKGQKVFLVATCGLGYRDYTKGMKDTLAKKDVLCMGSFQCRGWDTYGIFGKIGGIAKKHPNDRDLKEAQEFVLKTVCKTNNLEHHHHHH” is “not soluble”; for “MTEALEQPLRRILSYWRNEIKPLLDAETGTLFKQAPIRVTLAFPNRYSVGMASLGYQVIYRMFNQEEGVACERAFLPDDVDAFERTGQALPTVESGRAAGDCELFSISVSFELDLTNIIRLIDVAGMNPLREERDETDPVVMIGGPLTSSNPYPLTPFADIIIIGDGEQIVPVVSEALRESSSREDFYDLIDGVPGVFLPARHVHEPTWATAPKELLPAYSQIVTPHSELSNMFLVEAQRGCPRPCTFCLARTMYGPNRNNQAQELLDVIPDWVEKVGLVGAALSDFPHTKFVGKTLTERGVKLGVSSIRADTVDAELAEILKAGGLRTFTVASDAPSERLRRWLKKGITTEDLLKTAQISRDLGFSGLKVYMMIGLGPENDDDITELISFTKELAGINRIALGISPFVPKRHTPHFADPFAGVQTIEKRLKRIQKELRTTAELRNVSAKWAWVESVIARGGPEVGMAAYQIYRNESIGAWKKALDEVGWQDDFEANTPSIGLPPGQYESKEVSAHAQGLAVLEHHHHHH” it is “soluble”.
“MSELHYLYGKPTGTADLRTVNSDFIVKEILPFSPSGEGEHHLVHIRKDGLNTVQVAEMLAKFAKVHPKEVTYAGQKDKNAITEQWFGIRIPGKETPAWIELNSDRLTVLSSSRHSKKLRIGALLGNRFILTLRNVTNVEDIISRIEKVSQIGVPNYFGEQRFGHDGKNLVLGRQMLAGKKVKDRNKRSMYLSAVRSHLFNTVVSYRLTHYGTRPLAGDCVMLAGSKSFFVTPEWDLVVLKRLIEKDIQLSAPLWGRGKMLPQGEAAEVETQAMADLTEDCYGLEHAGLEQERRPLLLEPQGLKHEQTSDGLVLEFILPAGCFATSLLRELVDYQDVKELQWQTTLTAETNVVTESNTAAANVSDNGESASLEHHHHHH”: the “soluble on expression in E. coli” value is “soluble”.
On to “MFMFEKPHGMRDTLPGLYETKKKVRRSLTDLIDKWGYQFMETPTLEFYDTVGVQSAIEEQQLFKLLDQDGKTLVLRPDMTGPIARVAASKLLKHGHPLRVGYAANVFRAQEREGGRPAEFEQVGVELIGDGTTSADAEVIALVVGALKNAGLASFKIAIGHAGIADALFVEVLGNVERADVLRRFLYEKNYVGYREHVKSLPLSSIDKSRLLELLELRGGIEVCGRAEEIVDSAQGKSVVDELKALWDILEDYGCTENVRLDLNMVSHMSYYTGILFEVYAENVGFVIGSGGRYNKLLGHFDSPAPATGFGLRIDRLIEALHMKDEPCEIDAVIFSKEQRAQAIAYANEERMKGNKVVLQDLSGIENIDQMTKSFANVTYFIGARKEEQNG”, for which the “soluble on expression in E. coli” value is reported as “not soluble”.
For the sequence “MGSDKIHHHHHHMAPNYMTEKWREDEEYLSYVEDLLATEEVQKLAEYTQHMHSTRLEHSISVSYHSYKLAKRWNGNARATARAGLLHDLFYYDWRTTKFDEGSHAYVHPRIAAKNAEKITELSDLERDIIIKHMWGATIAPPKYKESYIVTFVDKYCAVKEAALPMTTAMKTKWRQYFGQQSI”, the “soluble on expression in E. coli” value is on record as “not soluble”.
The entry for “GHMAKAYKQAGVDIEAGYQAVALMKEHVQKTMRPEVLGGIGGFGGLFDLSALGYRQPVLISGTDGVGTKLKLAFLLDRHDTIGIDCVAMCVNDIIVQGAEPLFFLDYIACGKAVPEKIAAIVKGVADGCVEAGCALIGGETAEMPGMYDEDEYDLAGFAVGVAEKERLITGETIQAGDALVGLPSSGLHSNGYSLVRRIVFEQAKLSLDEIYEPLDVPLGEELLKPTRIYAKLLRSVRERFTIKGMAHITGGGLIENIPRMLPPGIGARIQLGSWPILPIFDFLREKGSLEEEEMFSVFNMGIGLVLAVSPETAAPLVEWLSERGEPAYIIGEVAKGAGVSFAGGGRA” is “soluble”; for “MSLEQTVDIEVQGIRGFRAVRNTDLNVNLINKEEMDGSERYQHLVTKAVDRGLRVFGYYESSVRFERKQRQGKRDLLIAHVTPGEPTKIAGTDVQIEGEAAQDENFNALRKNLPKDGVLVEHQTYDDYKTAISRLALNRGYFDGNFKISRLEISPETHQAWWRMLFDSGVRYHYGNITFSHSQIRDDYLNNILNIKSGDPYLMNNLSDLTSDFPSSNWFSSVLVQPNVNHKSKTVDVEIILYPRKKNAMELGVGFSTDGGVHGQIGWTKPWINSRGHSLRSNLYLSAPKQTLEATYRMPLLKNPLNYYYDFAVGWEGEKENDTNTRVLTLSALRYWNNAHGWQYFGGLRMRYDSFTQADITDKTLLLYPTVGFTRTRLRGGSFATWGDVQKITFDLSKRIWLSESSFIKVQASSAWVRTYAENHRVVARAEIGYLHTKGIEKIPPTLRFFAGGDRSVRGYGYKKIAPKNRNGKLVGGSRLLTTSLEYQYQVYPNWWAATFADSGLAADNYTAKELRYGTGVGVRWASPVGAIKFDIATPIRDKDNSKNIQFYIGLGTEIEGHHHHHH” it is “not soluble”.
